Source: patent publication US20250242062A1 (VANDERBILT UNIVERSITY, published 2025)

What was measured:
[1] = molecular target: T1, murine COX-2 (mCOX-2) enzyme (murine, UniProt Q05769 18-604); assay: cell-based or functional assay
T1 sequence (looked up): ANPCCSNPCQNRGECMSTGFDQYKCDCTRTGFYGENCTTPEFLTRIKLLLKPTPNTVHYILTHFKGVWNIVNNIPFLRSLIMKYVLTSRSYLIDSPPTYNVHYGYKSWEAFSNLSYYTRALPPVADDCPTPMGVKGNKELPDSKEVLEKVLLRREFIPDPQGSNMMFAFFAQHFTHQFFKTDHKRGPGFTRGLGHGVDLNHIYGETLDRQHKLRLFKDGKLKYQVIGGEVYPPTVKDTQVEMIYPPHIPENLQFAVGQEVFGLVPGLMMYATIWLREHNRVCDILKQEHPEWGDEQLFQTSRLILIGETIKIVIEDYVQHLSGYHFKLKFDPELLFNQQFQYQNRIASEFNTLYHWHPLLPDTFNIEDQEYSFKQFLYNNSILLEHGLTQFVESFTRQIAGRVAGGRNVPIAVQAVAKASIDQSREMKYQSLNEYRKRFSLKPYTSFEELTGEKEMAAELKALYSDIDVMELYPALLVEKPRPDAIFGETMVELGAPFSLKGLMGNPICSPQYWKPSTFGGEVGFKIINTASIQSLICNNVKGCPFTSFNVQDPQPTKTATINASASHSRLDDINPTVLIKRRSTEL

[2] = molecular target: T1, murine COX-2 (mCOX-2) enzyme; assay: microscale thermophoresis (MST), apo mCOX-2; apo mCOX-2 as target
Protocol: The dissociation constant of A7 and F9 nanobodies while bound to apo mCOX-2 was evaluated by a microscale thermophoresis (MST) assay (Bartoschik, T, et al. Sci Rep 2018 8:4977). […] Further, the COX-2 inhibitory activity of A7 and F9 nanobodies was evaluated in the production of prostaglandin E2 (PGE2) and prostaglandin D2 (PGD2) using arachidonic acid (AA) as a substrate. In this assay, purified mouse COX-2 expressed in baculovirus-infected Sf9 cells was used. Purified COX-2 was incubated with varying concentrations of test nanobodies followed by the addition of hematin and AA, respectively. The PGE2 and PGD2 products in the reaction was quantified by a tandem liquid chromatography mass spectroscopy (LC-MS/MS) analysis.

B1: A7 nanobody (VHH)
VHH: QVQLQESGGGLVQPGGSLKLSCAASGSIFSINVMGWYRQAPGKQRELVATITSGGTTNYADSVKGRFTISRDNAKDTLYLQMNSLKPEDTAVYYCNAKDLGGSSWFSEFDYWGQGTQVTVGP
notes: Alpaca-derived VHH expressed in E. coli and purified by SEC; The stated molecular weight is 15.24 kDa; also called native A7 nanobody clone
With B1 the “IC50, inhibition of PGE2 and PGD2 production from arachidonic acid by purified mouse COX-2 (LC-MS/MS)” value [1] was 6.8 nM and the Kd [2] was 2.4 nM.
